Laboratory results reported in paper PMC9400090, “Cyclin-dependent kinase 1 depolymerizes nuclear lamin filaments by disrupting the head-to-tail interaction of the lamin central rod domain” (The Journal of Biological Chemistry, 2022).

T1: WT lamin 1 to 300 fragment (lamin A/C residues 1-300) (human, UniProt P02545 1-300)
T1 construct: lamin A/C, residues 1-300 (head region 1-27 and part of the central rod domain); The abstract says purified proteins were used; also called lamin 1-300; lamin N-terminal 1 to 300 fragment
T1 sequence (looked up): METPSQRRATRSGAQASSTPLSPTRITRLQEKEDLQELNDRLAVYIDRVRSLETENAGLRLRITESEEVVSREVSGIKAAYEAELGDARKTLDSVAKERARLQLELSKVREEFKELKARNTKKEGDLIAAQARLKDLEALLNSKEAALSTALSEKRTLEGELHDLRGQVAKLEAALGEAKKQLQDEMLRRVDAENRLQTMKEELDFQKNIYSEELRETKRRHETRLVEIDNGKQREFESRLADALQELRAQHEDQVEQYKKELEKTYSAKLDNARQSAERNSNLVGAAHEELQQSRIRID

T2: L59R mutant lamin 1 to 300 fragment (human, UniProt P02545 1-300, L59R)
T2 construct: lamin A/C, residues 1-300, with the genetic (laminopathy) mutation L59R; also called L59R-harboring lamin 1 to 300; L59R lamin 1 to 300
T2 sequence (looked up): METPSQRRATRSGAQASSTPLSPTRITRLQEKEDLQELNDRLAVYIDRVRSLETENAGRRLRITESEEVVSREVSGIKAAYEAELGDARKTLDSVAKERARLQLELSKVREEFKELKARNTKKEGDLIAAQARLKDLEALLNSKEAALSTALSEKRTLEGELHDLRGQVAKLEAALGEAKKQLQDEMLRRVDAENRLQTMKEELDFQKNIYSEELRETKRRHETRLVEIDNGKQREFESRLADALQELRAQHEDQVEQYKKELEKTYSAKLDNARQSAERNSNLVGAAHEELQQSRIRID

B1: GST-fused lamin 250 to 400 fragment (human lamin A/C residues 250-400) (domain or fragment, UniProt P02545 250-400, looked up)
chain: AQHEDQVEQYKKELEKTYSAKLDNARQSAERNSNLVGAAHEELQQSRIRIDSLSAQLSQLQKQLAAKEAKLRDLEDSLARERDTSRRLLAEKEREMAEMRARMQQQLDEYQELLDIKLALDMEIHAYRKLLEGEEERLRLSPSPTSQRSRG
notes: human lamin A/C, residues 250-400: most of coil 2 (242-385) and a C-terminal flanking region (386-400); also called GST-lamin coil 250-400; lamin C-terminal 250 to 400 fragment; source: E. coli, purified (glutathione-agarose, HiTrap Q, desalting); not shown: GST, N-terminal, kept

How the values were obtained:
lamin A/C 250-400 = lamin A/C 250-400 (UniProt P02545); assay: GST pull-down, SDS-PAGE; conditions: reference: wild type, CDK1 treated
[1] = target: T1, WT lamin 1 to 300 fragment (lamin A/C …); assay: pull-down; GST-fused coil 2C fragment (5 μM) on GSH-agarose resin with lamin N-terminal fragments (20 μM); 20 mM Tris-HCl pH 7.5, 50 mM NaCl, 1 h at room temperature; eluted with 20 mM GSH; SDS-PAGE or Phos-tag SDS-PAGE; conditions: both partners purified
[2] = target: T2, L59R mutant lamin 1 to 300 fragment; assay: as above; conditions: both partners purified
[3] = target: B1; assay: as above; conditions: both partners purified
[4] = target: the molecule itself; assay: cross-linking; disulfide bond between Cys146 of two coiled-coil dimers as read-out of the A11 tetramer; Phos-tag SDS-PAGE with nonreducing loading dye

Row | binding result [3] | Molecule | further results
1 | – | lamin A/C 1-125 (from UniProt P02545) T19A, CDK1 treated | binding against the reference (lamin A/C 250-400; sites T19): stronger
2 | – | lamin A/C 1-125 (from UniProt P02545) S22A, CDK1 treated | binding against the reference (lamin A/C 250-400; sites S22): stronger
3 | – | B1 | binding result [1]: binds; binding result [2]: binds
4 | binds | WT lamin 1 to 125 fragment (human lamin A/C, residues 1-125) (domain or fragment, UniProt P02545 1-125, looked up) METPSQRRATRSGAQASSTPLSPTRITRLQEKEDLQELNDRLAVYIDRVRSLETENAGLRLRITESEEVVSREVSGIKAAYEAELGDARKTLDSVAKERARLQLELSKVREEFKELKARNTKKEG | –
5 | binds | lamin 1 to 125 fragment T19A/S22A (domain or fragment, human, UniProt P02545 1-125, looked up, also called double mutant) METPSQRRATRSGAQASSAPLAPTRITRLQEKEDLQELNDRLAVYIDRVRSLETENAGLRLRITESEEVVSREVSGIKAAYEAELGDARKTLDSVAKERARLQLELSKVREEFKELKARNTKKEG | –
6 | binds | lamin 1 to 125 fragment T19D/S22D (domain or fragment, human, UniProt P02545 1-125, looked up, also called phosphorylation-mimicking dual mutant) METPSQRRATRSGAQASSDPLDPTRITRLQEKEDLQELNDRLAVYIDRVRSLETENAGLRLRITESEEVVSREVSGIKAAYEAELGDARKTLDSVAKERARLQLELSKVREEFKELKARNTKKEG | –
7 | binds | lamin 1 to 125 fragment S22A (domain or fragment, human, UniProt P02545 1-125, looked up) METPSQRRATRSGAQASSTPLAPTRITRLQEKEDLQELNDRLAVYIDRVRSLETENAGLRLRITESEEVVSREVSGIKAAYEAELGDARKTLDSVAKERARLQLELSKVREEFKELKARNTKKEG | –
8 | binds | lamin 1 to 125 fragment T19A (domain or fragment, human, UniProt P02545 1-125, looked up) METPSQRRATRSGAQASSAPLSPTRITRLQEKEDLQELNDRLAVYIDRVRSLETENAGLRLRITESEEVVSREVSGIKAAYEAELGDARKTLDSVAKERARLQLELSKVREEFKELKARNTKKEG | –
9 | – | A146C mutant lamin 1 to 300 fragment (domain or fragment, human, UniProt P02545 1-300, looked up, lamin A/C, residues 1-300; Cys146 forms a disulfide between two coiled-coil dimers within the A11 tetramer; also called lamin 1 to 300 (A146C)) METPSQRRATRSGAQASSTPLSPTRITRLQEKEDLQELNDRLAVYIDRVRSLETENAGLRLRITESEEVVSREVSGIKAAYEAELGDARKTLDSVAKERARLQLELSKVREEFKELKARNTKKEGDLIAAQARLKDLEALLNSKECALSTALSEKRTLEGELHDLRGQVAKLEAALGEAKKQLQDEMLRRVDAENRLQTMKEELDFQKNIYSEELRETKRRHETRLVEIDNGKQREFESRLADALQELRAQHEDQVEQYKKELEKTYSAKLDNARQSAERNSNLVGAAHEELQQSRIRID | binding result [4]: binds
